According to patent publication US20220025022A1 (published 2022):

Legend:
[1] = target: T1, MBP-CfaE-N (recombinant N-terminal adhesin domain of CfaE fused to an MBP tag) (enterotoxigenic Escherichia coli (ETEC), UniProt P25734 24-205, Biotinylated for SPR; FITC or Alexa dye labelled for flow cytometry; sites not stated.); assay: SPR (Biacore T200), CfaE on CM5 chip, VHH injected, 25 C, 1:1 model
T1 construct: Used plain (ELISA), biotinylated (SPR) and FITC/Alexa-labelled (flow cytometry); GenBank M55661 is printed for the nucleic acid; also called recombinant N-terminal truncated CfaE protein; N-terminal CfaE protein
T1 sequence: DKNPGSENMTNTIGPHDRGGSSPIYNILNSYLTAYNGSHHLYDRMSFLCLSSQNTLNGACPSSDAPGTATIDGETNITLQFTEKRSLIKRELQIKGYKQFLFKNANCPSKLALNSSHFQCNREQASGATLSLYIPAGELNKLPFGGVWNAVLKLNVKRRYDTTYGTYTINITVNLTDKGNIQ

[2] = target: CS6 on ETEC strain #100001 (enterotoxigenic Escherichia coli (ETEC)); assay: cell-based or functional assay
[3] = target: T2, CFA/I fimbrial protein (with adhesin subunit CfaE) on ETEC strain H10407 (enterotoxigenic Escherichia coli (ETEC), UniProt P25734 1-360); assay: cell-based or functional assay
T2 sequence (looked up): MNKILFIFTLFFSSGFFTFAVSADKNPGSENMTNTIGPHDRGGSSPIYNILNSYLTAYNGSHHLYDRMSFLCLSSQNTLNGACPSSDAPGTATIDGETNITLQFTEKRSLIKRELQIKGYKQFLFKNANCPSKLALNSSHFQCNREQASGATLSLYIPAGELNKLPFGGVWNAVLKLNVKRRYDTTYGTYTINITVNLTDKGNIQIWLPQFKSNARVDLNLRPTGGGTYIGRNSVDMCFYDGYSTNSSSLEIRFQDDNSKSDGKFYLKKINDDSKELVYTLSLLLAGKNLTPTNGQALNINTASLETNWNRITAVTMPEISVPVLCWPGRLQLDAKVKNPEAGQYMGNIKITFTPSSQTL

[4] = target: CS5 on ETEC strain #204348 (enterotoxigenic Escherichia coli (ETEC)); assay: cell-based or functional assay
[5] = target: CS2 on ETEC strain #201546 (enterotoxigenic Escherichia coli (ETEC)); assay: cell-based or functional assay
CS4 on ETEC strain = CS4 on ETEC strain (enterotoxigenic Escherichia coli (ETEC)); assay: cell-based or functional assay
CS17 on ETEC strain = CS17 on ETEC strain (enterotoxigenic Escherichia coli (ETEC)); assay: cell-based or functional assay
[6] = target: CS14 on ETEC strain #400599 (enterotoxigenic Escherichia coli (ETEC)); assay: cell-based or functional assay
[7] = target: CS19 on ETEC strain #204648 (enterotoxigenic Escherichia coli (ETEC)); assay: cell-based or functional assay
[8] = target: CS3 on ETEC strain #100483 (enterotoxigenic Escherichia coli (ETEC)); assay: cell-based or functional assay
[9] = target: CS21 on ETEC strain #100171 (enterotoxigenic Escherichia coli (ETEC)); assay: cell-based or functional assay
[10] = target: CS1 on ETEC strain #200145 (enterotoxigenic Escherichia coli (ETEC)); assay: cell-based or functional assay
[11] = target: T3, recombinant CS2 (N-terminal adhesin domain of CotD, MBP-tagged) (enterotoxigenic Escherichia coli (ETEC)); assay: ELISA on coated recombinant antigen
T3 construct: also called CotD, CS2; colonization factor antigen CS2
T3 chain: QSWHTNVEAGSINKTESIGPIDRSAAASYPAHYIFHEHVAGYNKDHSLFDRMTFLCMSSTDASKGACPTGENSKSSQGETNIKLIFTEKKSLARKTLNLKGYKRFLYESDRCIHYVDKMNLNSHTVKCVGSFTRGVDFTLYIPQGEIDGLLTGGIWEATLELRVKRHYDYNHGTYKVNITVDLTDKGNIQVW

B1: VHH antibody 2R23 (monomeric) (VHH)
VHH: QVQLQESGGGLVQAGGSLRLSCAASGYIFWSYGYMGWYRQAPGKERELVATISRGGTTNYADSVKGRFTISRDNAKNTVYLQMNSLKPEDTAVYYCAAGRYAFGYFKYWGQGTQVTVSS
notes: also called clone 2R23
B1 gave a Kd [1] of 9.06 nM, a koff [1] of 64.6 s⁻¹ and a kon [1] of 7.13e+09 M⁻¹ s⁻¹. The “MRHA IC100” value [2] was 12.5 µg/mL, the “MRHA IC100” value [3] was 50 µg/mL and the “MRHA IC100” value [4] was 12.5 µg/mL. The “MRHA IC100” value [5] was 200 µg/mL, the “MRHA IC100” value (CS4 on ETEC strain) was 25 µg/mL and the “MRHA IC100” value (CS17 on ETEC strain) was 6.25 µg/mL. The “MRHA IC100” value [6] was 25 µg/mL, the “MRHA IC100” value [7] was 200 µg/mL and the “MRHA IC100” value [8] was 100 µg/mL. For the same binder, the “MRHA IC100” value [9] was 25 µg/mL and the “MRHA IC100” value [10] was 200 µg/mL.

B2: VHH antibody 1D7 (monomeric) (VHH)
VHH: EVQLVESGGGLVQAGGSLTLSCAASERTFSYYVMAWFRQAPGKEREFVAGISMSGDSTKYADSVKGRFTISRDNAENTGYLQMNGLKPEDTAVYYCAADRDIRGNFRSWGRGTQVTVSS
notes: also called clone 1D7
B2 gave a Kd [1] of 17.7 nM, a koff [1] of 0.0311 s⁻¹ and a kon [1] of 1.75e+06 M⁻¹ s⁻¹. The “MRHA IC100” value [2] was 12.5 µg/mL, the “MRHA IC100” value [3] was 100 µg/mL and the “MRHA IC100” value [4] was 3.12 µg/mL. For the same binder, the “MRHA IC100” value [5] was 50 µg/mL, the “MRHA IC100” value (CS4 on ETEC strain) was 200 µg/mL and the “MRHA IC100” value (CS17 on ETEC strain) was 6.25 µg/mL. For the same binder, the “MRHA IC100” value [6] was 100 µg/mL, the “MRHA IC100” value [7] was 100 µg/mL and the “MRHA IC100” value [8] was 50 µg/mL. The “MRHA IC100” value [9] was 25 µg/mL, the “MRHA IC100” value [10] was 50 µg/mL and the binding result [11] was “no binding”.

B3: VHH antibody 2R215 (monomeric) (VHH)
VHH: QVQLQESGGGLVQAGGSLRLSCAASGNIFQDAEMGWYRQAPGKEREFVATIAYGGNTNYADSVKGRFTISRDNAKNTVYLQMNSLKPEDTAVYYCAVYTGVYYDRTTGGYVAFEYWGQGTQVTVSS
In the case of B3, the “MRHA IC100” value [2] is reported as 25 µg/mL, the “MRHA IC100” value [3] is reported as 25 µg/mL and the “MRHA IC100” value [4] is reported as 6.25 µg/mL. For the same binder, the “MRHA IC100” value [5] was 6.25 µg/mL, the “MRHA IC100” value (CS4 on ETEC strain) was 100 µg/mL and the “MRHA IC100” value (CS17 on ETEC strain) was 6.25 µg/mL. The “MRHA IC100” value [6] was 200 µg/mL, the “MRHA IC100” value [7] was 200 µg/mL and the “MRHA IC100” value [8] was 100 µg/mL. For the same binder, the “MRHA IC100” value [9] was 25 µg/mL and the “MRHA IC100” value [10] was 200 µg/mL.
